In US20180222987A1:

What was measured:
[1] = molecular target: Macaca fascicularis CD3ε/δ-Fc fusion heterodimer (Macaca fascicularis) (UniProt Q95LI8); assay: SPR, SP-34 used as IgG
[2] = molecular target: human CD3ε/δ-Fc fusion heterodimer (hCD3ε/δ-hFc) (human) (UniProt P04234); assay: SPR, SP-34 used as IgG
[3] = molecular target: Macaca fascicularis CD3ε/δ-Fc fusion heterodimer (Macaca fascicularis) (UniProt Q95LI8); assay: SPR, cyno against human CD3ε/δ
[4] = molecular target: Macaca fascicularis CD3ε/δ-Fc fusion heterodimer (Macaca fascicularis) (UniProt Q95LI8); assay: SPR Biacore, CODV-Fab
[5] = molecular target: human CD3ε/δ-Fc fusion heterodimer (hCD3ε/δ-hFc) (human) (UniProt P04234); assay: SPR Biacore, CODV-Fab
[6] = molecular target: human CD123 on cells (human) (UniProt P26951); assay: cell-based or functional assay
[7] = molecular target: Macaca fascicularis CD3ε/δ-Fc fusion heterodimer (Macaca fascicularis) (UniProt Q95LI8); assay: SPR Biacore, Fab-fragment
[8] = molecular target: human CD3ε/δ-Fc fusion heterodimer (hCD3ε/δ-hFc) (human) (UniProt P04234); assay: SPR Biacore, Fab-fragment
[9] = molecular target: Macaca fascicularis CD3 (TCR complex) on cyno HSC-F cells (Macaca fascicularis) (UniProt Q95LI5); assay: flow cytometry, cyno HSC-F
[10] = molecular target: human CD3 (CD3ε of the TCR complex) on human T cells (human) (UniProt P07766); assay: flow cytometry, Jurkat E6-1 (w/o primary ab: 7)
[11] = molecular target: Macaca fascicularis CD3 (TCR complex) on cyno HSC-F cells (Macaca fascicularis) (UniProt Q95LI5); assay: flow cytometry, cyno HSC-F (control row of Table 2; same value as in Table 1)
[12] = molecular target: human CD3 (CD3ε of the TCR complex) on human T cells (human) (UniProt P07766); assay: flow cytometry, Jurkat E6-1 (w/o primary ab: 7; control row of Table 2; same value as in Table 1)
[13] = molecular target: recombinant huCD3ε/γ, Fc-tagged (PB01225) (human) (UniProt P07766); assay: SPR, Fc-captured CD3, 100 nM

Sequence of Macaca fascicularis CD3ε/δ-Fc fusion heterodimer (Macaca fascicularis) (chain, as listed by the source mutant, chain 1 of 2): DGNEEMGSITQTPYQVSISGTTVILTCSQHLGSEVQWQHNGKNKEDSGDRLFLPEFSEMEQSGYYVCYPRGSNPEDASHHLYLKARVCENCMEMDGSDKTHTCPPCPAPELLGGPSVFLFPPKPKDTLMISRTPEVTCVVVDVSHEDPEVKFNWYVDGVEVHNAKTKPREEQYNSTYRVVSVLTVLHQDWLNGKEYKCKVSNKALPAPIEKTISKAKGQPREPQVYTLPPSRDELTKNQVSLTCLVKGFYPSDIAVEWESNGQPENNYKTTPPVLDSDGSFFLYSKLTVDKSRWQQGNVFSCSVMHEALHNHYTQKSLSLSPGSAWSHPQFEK
Sequence of Macaca fascicularis CD3ε/δ-Fc fusion heterodimer (Macaca fascicularis) (Q95LI8 22-105, stated change not applied, chain 2 of 2): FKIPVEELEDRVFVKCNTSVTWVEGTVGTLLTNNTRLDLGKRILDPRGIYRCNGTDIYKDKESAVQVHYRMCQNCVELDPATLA
Sequence of human CD3ε/δ-Fc fusion heterodimer (hCD3ε/δ-hFc) (human) (chain, as listed by the source mutant, chain 1 of 2): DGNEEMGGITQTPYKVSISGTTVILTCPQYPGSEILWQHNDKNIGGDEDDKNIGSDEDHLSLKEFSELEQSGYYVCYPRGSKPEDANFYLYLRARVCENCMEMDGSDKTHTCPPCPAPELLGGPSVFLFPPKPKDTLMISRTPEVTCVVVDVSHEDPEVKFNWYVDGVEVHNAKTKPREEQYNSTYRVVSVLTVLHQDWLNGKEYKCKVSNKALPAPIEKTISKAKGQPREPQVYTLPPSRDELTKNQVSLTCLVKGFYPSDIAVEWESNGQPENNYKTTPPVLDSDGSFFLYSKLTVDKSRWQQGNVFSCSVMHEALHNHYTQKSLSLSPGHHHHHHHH
Sequence of human CD3ε/δ-Fc fusion heterodimer (hCD3ε/δ-hFc) (human) (P04234 22-105, stated change not applied, chain 2 of 2): as the sequence (Q95LI8 22-105, stated change not applied, chain 2 of 2) above, with V5I, K15N, V20I, T32S, N33D, N34I, A64T, N74S, L83V counted along it
Sequence of Macaca fascicularis CD3 (TCR complex) on cyno HSC-F cells (Macaca fascicularis) (Q95LI5 22-198 limits assumed, one chain of several): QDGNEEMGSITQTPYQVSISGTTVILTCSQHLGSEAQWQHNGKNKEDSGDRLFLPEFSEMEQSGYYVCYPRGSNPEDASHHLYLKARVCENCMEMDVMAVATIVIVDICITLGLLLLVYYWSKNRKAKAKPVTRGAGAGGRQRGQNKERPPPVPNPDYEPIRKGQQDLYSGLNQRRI
Sequence of human CD123 on cells (human) (P26951 19-378): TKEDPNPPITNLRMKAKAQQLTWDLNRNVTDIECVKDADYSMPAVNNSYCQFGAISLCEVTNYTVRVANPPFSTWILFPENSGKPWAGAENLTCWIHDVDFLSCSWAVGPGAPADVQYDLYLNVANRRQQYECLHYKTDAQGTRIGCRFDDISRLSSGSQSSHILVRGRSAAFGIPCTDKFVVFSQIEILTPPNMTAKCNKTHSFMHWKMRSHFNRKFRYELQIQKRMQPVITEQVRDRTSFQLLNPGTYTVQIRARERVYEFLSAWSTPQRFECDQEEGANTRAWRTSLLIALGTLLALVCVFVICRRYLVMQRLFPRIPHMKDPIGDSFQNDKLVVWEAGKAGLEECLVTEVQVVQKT

SP-34 (antibody)
Kd [1]: 13 nM | koff [1]: 0.0028 s⁻¹ | kon [1]: 220000 M⁻¹ s⁻¹ | Kd [2]: 2.7 nM | koff [2]: 0.003 s⁻¹ | kon [2]: 1.1e+06 M⁻¹ s⁻¹ | ratio KD(cy)/KD(hu) [3]: 5

CODV-Fab 7G3 × I2C (bispecific antibody)
Kd [4]: 0.4 nM | Kd [5]: 0.5 nM | koff [5]: 0.002 s⁻¹ | kon [5]: 4e+06 M⁻¹ s⁻¹ | Activity EC50 (cytotoxic assay, THP-1 targets + primary human T cells) [6]: 0.02 µg/mL

I2C Fab (monospecific anti-CD3 Fab)
Kd [7]: 0.5 nM | Kd [8]: 0.13 nM | koff [8]: 0.0013 s⁻¹ | kon [8]: 1.1e+07 M⁻¹ s⁻¹

FN18 (antibody)
geometric mean of relative fluorescence intensity [9]: 1260 rfu | geometric mean of relative fluorescence intensity [10]: 7 rfu | geometric mean of relative fluorescence intensity [11]: 1260 rfu | geometric mean of relative fluorescence intensity [12]: 7 rfu

OKT3 (antibody)
RU of Fab binding at 100 nM [13]: 3 RU
